Biological target: T1, OmpA ( (endogenous in the host …, UniProt P0A910 22-346))
T1 construct: OmpA, outer membrane protein; source: endogenous, in cells / DDM-solubilized membrane fraction
T1 sequence (looked up): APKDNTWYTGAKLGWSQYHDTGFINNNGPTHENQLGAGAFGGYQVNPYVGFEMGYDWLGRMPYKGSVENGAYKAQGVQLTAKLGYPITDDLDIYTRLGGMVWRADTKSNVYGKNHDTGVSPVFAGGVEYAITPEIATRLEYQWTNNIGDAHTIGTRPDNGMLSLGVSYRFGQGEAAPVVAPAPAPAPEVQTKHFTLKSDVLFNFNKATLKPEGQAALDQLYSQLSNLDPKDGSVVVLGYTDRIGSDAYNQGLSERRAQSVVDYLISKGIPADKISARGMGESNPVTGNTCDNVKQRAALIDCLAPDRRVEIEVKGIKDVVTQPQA
Assay: cross-linking; in vivo formaldehyde crosslinking; OM version of RcsF variants with endogenous OmpA (and BamA); immunoblot of whole cell lysates probed with α-RcsF, RcsF/OmpA band quantified relative to the WT
Conditions: partners not purified

B1: RcsF(A55V), OM version (natural protein, UniProt P69411 16-134, looked up)
chain: CSMLSRSPVEPVQSTAPQPKAEPAKPKAPRATPVRIYTNVEELVGKPFRDLGEVSGDSCQASNQDSPPSIPTARKRMQINASKMKANAVLLHSCEVTSGTPGCYRQAVCIGSALNITAK
modifications: lipidated N-terminal cysteine (residue 16)
notes: RcsF, sensory outer membrane lipoprotein; mature RcsF = residues 16-134 (NTD 16-48, CTD 49-134); also called GOF[OM] variant; source: expressed from the low copy number vector pZS21 in a ΔrcsF strain; in cells
  percent decrease of RcsF/OmpA complex relative to WT: 50%

Reference: publication PMC9907809, “Conformational rearrangements in the sensory RcsF/OMP complex mediate signal transduction across the bacterial cell envelope” (PLOS Genetics, 2023)
